Source: IntAct's records for PubMed 9299557

B1: Tumor necrosis factor alpha-induced protein 3 (Homo sapiens), P21580 (parent)
chain: MAEQVLPQALYLSNMRKAVKIRERTPEDIFKPTNGIIHHFKTMHRYTLEMFRTCQFCPQFREIIHKALIDRNIQATLESQKKLNWCREVRKLVALKTNGDGNCLMHATSQYMWGVQDTDLVLRKALFSTLKETDTRNFKFRWQLESLKSQEFVETGLCYDTRNWNDEWDNLIKMASTDTPMARSGLQYNSLEEIHIFVLCNILRRPIIVISDKMLRSLESGSNFAPLKVGGIYLPLHWPAQECYRYPIVLGYDSHHFVPLVTLKDSGPEIRAVPLVNRDRGRFEDLKVHFLTDPENEMKEKLLKEYLMVIEIPVQGWDHGTTHLINAAKLDEANLPKEINLVDDYFELVQHEYKKWQENSEQGRREGHAQNPMEPSVPQLSLMDVKCETPNCPFFMSVNTQPLCHECSERRQKNQNKLPKLNSKPGPEGLPGMALGASRGEAYEPLAWNPEESTGGPHSAPPTAPSPFLFSETTAMKCRSPGCPFTLNVQHNGFCERCHNARQLHASHAPDHTRHLDPGKCQACLQDVTRTFNGICSTCFKRTTAEASSSLSTSLPPSCHQRSKSDPSRLVRSPSPHSCHRAGNDAPAGCLSQAARTPGDRTGTSKCRKAGCVYFGTPENKGFCTLCFIEYRENKHFAAASGKVSPTASRFQNTIPCLGRECGTLGSTMFEGYCQKCFIEAQNQRFHEAKRTEEQLRSSQRRDVPRTTQSTSRPKCARASCKNILACRSEELCMECQHPNQRMGPGAHRGEPAPEDPPKQRCRAPACDHFGNAKCNGYCNECFQFKQMYG
partner: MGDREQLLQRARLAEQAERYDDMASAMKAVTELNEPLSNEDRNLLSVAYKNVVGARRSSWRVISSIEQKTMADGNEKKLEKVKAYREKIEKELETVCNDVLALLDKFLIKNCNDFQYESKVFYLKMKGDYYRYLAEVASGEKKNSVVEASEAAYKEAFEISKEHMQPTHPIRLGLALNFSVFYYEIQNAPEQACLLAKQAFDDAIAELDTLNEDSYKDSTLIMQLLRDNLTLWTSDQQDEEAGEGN
B2: Tumor necrosis factor alpha-induced protein 3 (Homo sapiens), P21580 (parent)
chain: B1 chain

Variants of: B1
Details: with 1433f_mouse Ywhah

Variant | effect of a mutation on the interaction
R562A | disrupting interaction
S565A | disrupting interaction

Variants of: B2
Details: with 1433z_mouse Ywhaz

Variant | effect of a mutation on the interaction
R562A | disrupting interaction
S565A | disrupting interaction
